# In patent US20060014937A1:
# Target: HBV S-surface antigen (International Enzyme Inc., USA) adr type (hepatitis B virus (adr type))
# Assay: competition ELISA in solution (Friguet method): antibody pre-mixed with 10^-11 to 10^-6 M antigen, free antibody caught on antigen-coated plate
row,Binder,Ka
1,"humanized antibody YHB1110-13 (antibody, V domains shown) VH: QVQLKQSGPGLVKPSQTLSLTCTVSGFSLSTYGVQWVRQPPGKGLEWLGVIWSGGNTDYNAAFISRVTISKDTSKNQVSLKLSSVTAADTAVYYCARARYFDVWGAGTTVTVSS VL: QAVVTQEPSLTVSPGGTVTLTCRSSTGAITTNNFANWFQQKPGQAFRGLIGDTNNRVPGVPARFSGSLLGNKAALTITGAQPEDEAEYYCALWYNNWVFGGGTKLTVLG",1e+08 M⁻¹
2,"humanized antibody YHB1110-15 (antibody, V domains shown) VH: QVQLKQSGPGLVKPSQTLSLTCTVSGFSLSTYGVQWVRQPPGKGLEWLGVIWSGGNTDYNAAFISRVTISKDTSKNQVSLKLSSVTAADTAVYYCARARYFDVWGAGTTVTVSS VL: QAVVTQEPSLTVSPGGTVTLTCRSSTGAITTNNFANWFQQKPGQAFRGLIGDTNNRVPGVPARFSGSLIGDKAALTITGAQPEDEAEYYCALWYNNWVFGGGTKLTVLG",7e+07 M⁻¹
